Experimental data as given in patent US5604203A, “Analogs of peptide YY and uses thereof” (University of Cincinnati, priority 1994, dated 1997).
Read-outs that look alike come from different tables or passages of the source. Values belong to the molecule of their own block, whether it stands above or below them. Square brackets hold non-standard residues; d marks the D form. Peptide text beside a SMILES is read from it. Bip = N[C@@H](Cc1ccc(-c2ccccc2)cc1)C(=O)O; Phe(4-Cl) = N[C@@H](Cc1ccc(Cl)cc1)C(=O)O; 2Nal = N[C@@H](Cc1ccc2ccccc2c1)C(=O)O; Tic = O=C(O)[C@@H]1Cc2ccccc2CN1; 2Thi = N[C@@H](Cc1cccs1)C(=O)O

Columns and labels:
rat jejunal mucosa [1] = assay: Short circuit current (SCC) in voltage clamped rat jejunal mucosa (antisecretory effect); format: cell-based; settings: for EC50: Table 1, reduction of baseline SCC, rat jejunum, mean of three separate experiments
Description: The antisecretory effects of the peptides were investigated by measuring the short-circuit current (SCC) in rat jejunal mucosa mounted in a Ussing chamber and automatically voltage clamped as described by Cox et al. (J. Physiol. supra). Briefly, strips of mucosa were placed between two halves of perspex Ussing chambers (window size, 0.6 cm^2) containing oxygenated (95% O2 /5% CO2) Krebs-Henseleit solution (NaCl, 117 mM, KCl 4.7 mM, CaCl2, 2.5 mM; MgSO4 1.2 mM, NaHCO3 24.8 mM and glucose 11.1 mM), pH 7.4, 37° C. […] Once a stable baseline SCC was reached, peptides were added to the basolateral reservoir only, and cumulative concentration-response profiles constructed.

[2] = target: T1, intestinal PYY-preferring receptors (Rattus norvegicus, UniProt Q9ERC0); settings: BINDING IC50 (nM), Table 1; 125I-PYY, rat jejunal membranes; mean of three separate experiments
T1 sequence (Q9ERC0 1-381): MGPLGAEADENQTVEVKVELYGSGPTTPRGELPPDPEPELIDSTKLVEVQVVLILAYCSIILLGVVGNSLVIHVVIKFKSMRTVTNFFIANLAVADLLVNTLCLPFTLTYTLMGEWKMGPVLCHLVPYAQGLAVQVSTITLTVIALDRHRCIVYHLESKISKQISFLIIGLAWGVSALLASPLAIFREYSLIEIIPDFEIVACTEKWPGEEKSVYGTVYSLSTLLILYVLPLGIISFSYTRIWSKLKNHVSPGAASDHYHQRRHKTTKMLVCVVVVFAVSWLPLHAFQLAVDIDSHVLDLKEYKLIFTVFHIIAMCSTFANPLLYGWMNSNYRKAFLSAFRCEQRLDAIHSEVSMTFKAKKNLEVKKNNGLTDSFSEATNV
Description: Bound and free peptides were separated by centrifugation at 20,000×g for 10 min.
All points in the binding experiments are the mean of at least three experiments performed in duplicate.

[3] = target: PYY receptor of rat jejunal epithelial plasma membranes (rat)
[4] = target: PYY receptor of rat jejunal epithelial plasma membranes (rat); assay: competition with 125I-PYY on rat jejunal epithelial plasma membranes
[5] = target: PYY receptor of rat jejunal epithelial plasma membranes (rat); assay: competition with 125I-PYY on rat jejunal membranes
[6] = target: PYY receptor of rat jejunal epithelial plasma membranes (rat); assay: competition with 0.05 nM 125I-PYY on rat jejunal epithelial plasma membranes
[7] = target: PYY receptor of rat jejunal epithelial plasma membranes (rat); remark: listed apart in the source
[8] = target: PYY receptor of rat jejunal epithelial plasma membranes (rat); assay: competitive binding, done as described above (125I-PYY, rat jejunal membranes)
[9] = target: PYY receptor of rat jejunal epithelial plasma membranes (rat); remark: listed apart in the source
rat jejunal mucosa [10] = settings: Cox et al. Peptides, supra; cited from earlier work

EC50 (rat jejunal mucosa [1]): 15.1 nM
Molecule: Ac-ASLRHFLNLVTRQRY-NH2 [N-α-Ac-[Phe^27]PYY(22-36)]
maximal inhibitory response (change in SCC) (rat jejunal mucosa [1]; 1.4 μM, n=7): -12.0±1.3 μA/0.6 cm^2 | times less potent than the intact hormone (antisecretory potency) (rat jejunal mucosa [1]; relative to PYY): 9 times

SCC EC50 [7]: > 30000 nM | SCC EC50 [3]: 19500 nM
Molecule: N-α-naphthaleneacetyl-PYY(22-36) (peptide)

IC50 [8]: 0.1 nM | SCC EC50 of PYY after treatment of the tissue with the analog (1 µM) [7]: 4.4 nM | SCC EC50 of PYY, nontreated controls [7]: 2.6 nM | SCC EC50 [3]: 1.7 nM | maximal inhibitory response of SCC [9]: -12.6 µA/0.6 cm^2 | IC50 [5]: 0.04 nM | IC50 [6]: 0.2 nM
Molecule: PYY (peptide YY) (ligand)

IC50 [8]: 4.46 nM
B1: N-α-Ac-[Phe^27,Thi^36 ]PYY(22-36) (peptide)
peptide: ASLRHFLNLVTRQRX
HELM: PEPTIDE1{[ac].A.S.L.R.H.F.L.N.L.V.T.R.Q.R.[O=C([C@H](Cc1cccs1)N[*:1])[*:2]].[am]}$$$$V2.0
SMILES: CC(=O)N[C@@H](C)C(=O)N[C@@H](CO)C(=O)N[C@@H](CC(C)C)C(=O)N[C@@H](CCCNC(=N)N)C(=O)N[C@@H](Cc1c[nH]cn1)C(=O)N[C@@H](Cc1ccccc1)C(=O)N[C@@H](CC(C)C)C(=O)N[C@@H](CC(N)=O)C(=O)N[C@@H](CC(C)C)C(=O)N[C@H](C(=O)N[C@H](C(=O)N[C@@H](CCCNC(=N)N)C(=O)N[C@@H](CCC(N)=O)C(=O)N[C@@H](CCCNC(=N)N)C(=O)N[C@@H](Cc1cccs1)C(N)=O)[C@@H](C)O)C(C)C

IC50 [5]: 0.39 nM
Molecule: Ac-ASLRH[2Nal]LNLVTRQRY-NH2 [N-α-Ac-[Nal^27 ]PYY(22-36)]

SCC EC50 [3]: 124 nM | IC50 [6]: 50 nM
B3: N-α-Ac-[p.ClPhe^26 ]PYY(22-36) (peptide)
peptide: ASLRXYLNLVTRQRY
HELM: PEPTIDE1{[ac].A.S.L.R.[O=C([C@H](Cc1ccc(Cl)cc1)N[*:1])[*:2]].Y.L.N.L.V.T.R.Q.R.Y.[am]}$$$$V2.0
SMILES: CC(=O)N[C@@H](C)C(=O)N[C@@H](CO)C(=O)N[C@@H](CC(C)C)C(=O)N[C@@H](CCCNC(=N)N)C(=O)N[C@@H](Cc1ccc(Cl)cc1)C(=O)N[C@@H](Cc1ccc(O)cc1)C(=O)N[C@@H](CC(C)C)C(=O)N[C@@H](CC(N)=O)C(=O)N[C@@H](CC(C)C)C(=O)N[C@H](C(=O)N[C@H](C(=O)N[C@@H](CCCNC(=N)N)C(=O)N[C@@H](CCC(N)=O)C(=O)N[C@@H](CCCNC(=N)N)C(=O)N[C@@H](Cc1ccc(O)cc1)C(N)=O)[C@@H](C)O)C(C)C

SCC EC50 [3]: 3000 nM | IC50 [6]: 44.7 nM
Molecule: Ac-ASLRHYENLVTRQRY-NH2 [N-α-Ac-[Glu^28 ]PYY(22-36)]

SCC EC50 [3]: 15.1 nM | percent increase of receptor affinity against N-α-Ac-PYY(22-36) [4]: 28% | antisecretory potency against PYY (times less potent than PYY) [9]: 9 | maximal inhibitory response of SCC [9]: -12 µA/0.6 cm^2 | IC50 [6]: 0.8 nM
Molecule: Ac-ASLRHFLNLVTRQRY-NH2 [N-α-Ac-[Phe^27 ]PYY(22-36)]

IC50 [5]: 0.095 nM
Molecule: Ac-ASLRH[2Thi]LNLVTRQRY-NH2 [N-α-Ac-[Thi^27 ]PYY(22-36)]

IC50 [5]: 0.22 nM
B4: N-α-Ac-[Bth^27 ]PYY(22-36) (peptide)
peptide: ASLRHXLNLVTRQRY
HELM: PEPTIDE1{[ac].A.S.L.R.H.[O=C([C@H](Cc1csc2ccccc12)N[*:1])[*:2]].L.N.L.V.T.R.Q.R.Y.[am]}$$$$V2.0
SMILES: CC(=O)N[C@@H](C)C(=O)N[C@@H](CO)C(=O)N[C@@H](CC(C)C)C(=O)N[C@@H](CCCNC(=N)N)C(=O)N[C@@H](Cc1c[nH]cn1)C(=O)N[C@@H](Cc1csc2ccccc12)C(=O)N[C@@H](CC(C)C)C(=O)N[C@@H](CC(N)=O)C(=O)N[C@@H](CC(C)C)C(=O)N[C@H](C(=O)N[C@H](C(=O)N[C@@H](CCCNC(=N)N)C(=O)N[C@@H](CCC(N)=O)C(=O)N[C@@H](CCCNC(=N)N)C(=O)N[C@@H](Cc1ccc(O)cc1)C(N)=O)[C@@H](C)O)C(C)C

IC50 [8]: 1.58 nM
Molecule: Ac-ASLRH[Phe(4-Cl)]LNLVTRQRY-NH2 [N-α-Ac-[Pcp^27 ]PYY(22-36)]

IC50 [8]: 0.1 nM
Molecule: Ac-YSLRHFLNLVTRQRY-NH2 [N-α-Ac-[Tyr^22, Phe^27 ]PYY(22-36)]

Second part, the molecule before the results:

Molecule: CC(=O)N[C@@H](C)C(=O)N[C@@H](CO)C(=O)N[C@@H](CC(C)C)C(=O)N[C@@H](CCCNC(=N)N)C(=O)N[C@@H](Cc1ccc(Cl)cc1)C(=O)N[C@@H](Cc1ccc(O)cc1)C(=O)N[C@@H](CC(C)C)C(=O)N[C@@H](CC(N)=O)C(=O)N[C@@H](CC(C)C)C(=O)N[C@H](C(=O)N[C@H](C(=O)N[C@@H](CCCNC(=N)N)C(=O)N[C@@H](CCC(N)=O)C(=O)N[C@@H](CCCNC(=N)N)C(=O)N[C@@H](Cc1ccc(O)cc1)C(N)=O)[C@@H](C)O)C(C)C [N-α-Ac-[p.ClPhe^26]PYY(22-36), N-α-Ac-A S L R [p.Cl.Phe^26] Y L N L V T R Q R] (HELM PEPTIDE1{[ac].A.S.L.R.[O=C([C@H](Cc1ccc(Cl)cc1)N[*:1])[*:2]].Y.L.N.L.V.T.R.Q.R.Y.[am]}$$$$V2.0)
EC50 (rat jejunal mucosa [1]): 124 nM | IC50 [2]: 50 nM

Molecule: Ac-ASLRHYENLVTRQRY-NH2 [N-α-Ac-[Glu^28]PYY(22-36), N-α-Ac-A S L R H Y [Glu] N L V T R Q R Y--NH2]
EC50 (rat jejunal mucosa [1]): 3000 nM | IC50 [2]: 44.7 nM

Molecule: N-α-Ac-PYY(22-36) (peptide)
SCC EC50 [3]: 40 nM | fold increase of receptor affinity against PYY(22-36) [4]: 4 times | IC50 [5]: 0.08 nM | IC50 [6]: 1.12 nM

Molecule: [Pro^34 ]NPY: Y-1 selective agonist
sensitivity of rat jejunal epithelial receptors to agonist (rat jejunal mucosa [10]): completely insensitive

B2: N-α-Ac-[Thz^26, Phe^27 ]PYY(22-36) (peptide)
peptide: ASLRXFLNLVTRQRY
HELM: PEPTIDE1{[ac].A.S.L.R.[O=C([C@H](Cc1cscn1)N[*:1])[*:2]].F.L.N.L.V.T.R.Q.R.Y.[am]}$$$$V2.0
SMILES: CC(=O)N[C@@H](C)C(=O)N[C@@H](CO)C(=O)N[C@@H](CC(C)C)C(=O)N[C@@H](CCCNC(=N)N)C(=O)N[C@@H](Cc1cscn1)C(=O)N[C@@H](Cc1ccccc1)C(=O)N[C@@H](CC(C)C)C(=O)N[C@@H](CC(N)=O)C(=O)N[C@@H](CC(C)C)C(=O)N[C@H](C(=O)N[C@H](C(=O)N[C@@H](CCCNC(=N)N)C(=O)N[C@@H](CCC(N)=O)C(=O)N[C@@H](CCCNC(=N)N)C(=O)N[C@@H](Cc1ccc(O)cc1)C(N)=O)[C@@H](C)O)C(C)C
IC50 [8]: 4.5 nM

Molecule: FSLRHFLNLVTRQRY (not fully specified; N-terminal acetyl; C-terminal amide) [N-α-Ac-[Phe^22,27 ]PYY(22-36)]
IC50 [8]: 11.2 nM

Molecule: Ac-ASLRHWLNLVTRQRY-NH2 [N-α-Ac-[Trp^27 ]PYY(22-36)]
IC50 [5]: 0.1 nM

Molecule: Ac-ASLRH[Bip]LNLVTRQRY-NH2 [N-α-Ac-[Bip^27 ]PYY(22-36)]
IC50 [5]: 4.46 nM

Molecule: Ac-ASLRH[Tic]LNLVTRQRY-NH2 [N-α-Ac-[Tic^27 ]PYY(22-36)]
IC50 [5]: 4.5 nM
